Results from paper PMC7547085, “Specific and direct modulation of the interaction between adhesion GPCR GPR56/ADGRG1 and tissue transglutaminase 2 using synthetic ligands” (Scientific Reports, 2020).

B1: mouse tissue transglutaminase 2 C-terminal D3D4 domains (mTG2 D3D4) [modified: biotin on the AVI-tag; biotin on the AVI-tag] [mouse] / mouse full-length GPR56 (GPR56 FL), wild type, on HEK293T cells [mouse] (parent complex)
chain 1: TGVAMRIRVGDSMSMGNDFDVFAHIGNDTSETRECRLLLCARTVSYNGVLGPECGTEDINLTLDPYSENSIPLRILYEKYSGCLTESNLIKVRGLLIEPAANSYLLAERDLYLENPEIKIRVLGEPKQNRKLVAEVSLKNPLSDPLYDCIFTVEGAGLTKEQKSVEVSDPVPAGDLVKARVDLFPTDIGLHKLVVNFQCDKLKSVKGYRNVIIGPA
chain 2: GSPREDFRFCGQRNQTQQSTLHYDQSSEPHIFVWNTEETLTIRAPFLAAPDIPRFFPEPRGLYHFCLYWSRHTGRLHLRYGKHDYLLSSQASRLLCFQKQEQSLKQGAPLIATSVSSWQIPQNTSLPGAPSFIFSFHNAPHKVSHNASVDMCDLKKELQQLSRYLQHPQKAAKRPTAAFISQQLQSLESKLTSVSFLGDTLSFEEDRVNATVWKLPPTAGLEDLHIHSQKEEEQSEVQAYSLLLPRAVFQQTRGRRRDDAKRLLVVDFSSQALFQDKNSSQVLGEKVLGIVVQNTKVTNLSDPVVLTFQHQPQPKNVTLQCVFWVEDPASSSTGSWSSAGCETVSRDTQTSCLCNHLTYFAVLMVSSTEVEATHKHYLTLLSYVGCVISALACVFTIAAYLCSRRKSRDYTIKVHMNLLSAVFLLDVSFLLSEPVALTGSEAACRTSAMFLHFSLLACLSWMGLEGYNLYRLVVEVFGTYVPGYLLKLSIVGWGFPVFLVTLVALVDVNNYGPIILAVRRTPERVTYPSMCWIRDSLVSYVTNLGLFSLVFLFNLAMLATMVVQILRLRPHSQNWPHVLTLLGLSLVLGLPWALVFFSFASGTFQLVILYLFSIITSFQGFLIFLWYWSMRFQAQGGPSPLKNNSDSAKLPISSGSTSSSRI

Variants of: B1
Experiment: flow cytometry on cells; 5 nM TG2 D3D4 (tetramerized); GPR56 FL constructs expressed on HEK293T cells; n = 3; parent: 1; read off a plot

Row | Variant | ratio to parent
1 | chain 2 Q12A | ~0.69
2 | chain 2 R8E | ~4.7

Further lines, results first:

Row | ratio to parent | Variant
3 | ~0.27 | chain 2 R79D
4 | ~5.3 | chain 2 A112R, chain 2 S114R
